Reference: patent publication US20190119362A1 (KANEKA, published 2019)
Numbering of substitutions follows the chain as printed. Read-outs that look alike come from different tables or passages of the source.

B1: LC4t-Wild.1d (other)
chain: GPLGSEEVTIKVNLIFADGKTQTAEFKGTFEEATAEAYRYADLLAKVNGEYTADLEDGGYTINIKFAGK
notes: also called C4 domain
B2: LB1t-Wild.1d (other)
chain: GPLGSEEVTIKANLIFANGSTQTAEFKGTFEKATSEAYAYADTLKKDNGEYTVDVADKGYTLNIKFAG
notes: also called B1 domain
B3: LB5t-Wild.1d (B5 domain of PpL 312 with deletion of N-terminal region) (other)
chain: GPLGSEQVTIKENIYFEDGTVQTATFKGTFAEATAEAYRYADLLSKEHGKYTADLEDGGYTINIRFAG
B4: LB3t-Wild.1d (other)
chain: GPLGSEEVTIKANLIYADGKTQTAEFKGTFEEATAEAYRYADLLAKENGKYTVDVADKGYTLNIKFAG
notes: also called B3 domain
B5: LB4t-Wild.1d (other)
chain: B4 chain with E31A, V53A, V55L, A56E, K58G, L62I, K65R
notes: also called B4 domain
B6: LC1t-Wild.1d (other)
chain: GPLGSEEVTIKANLIFADGSTQNAEFKGTFAKAVSDAYAYADALKKDNGEYTVDVADKGLTLNIKFAGK
notes: also called C1 domain

Key:
Test in all cases: SPR (Biacore 3000), Fab immobilized on CM5, peptide as analyte, 1:1 fit, 25 C
[1] = target: T1, aTNFa-Fab (Fab fragment of Infliximab) (Chimeric antibody/IgG1κ)
T1 construct: domain: Fab fragment; also called Infliximab Fab; Remicade Fab
Protocol: (§1) The IgG-Fab was immobilized on a sensor tip CM5 by amine coupling method using N-hydroxysuccinimide (NHS) and N-ethyl-N′-(3-dimethylaminopropyl)carbodiimide hydrochloride (EDC), and ethanolamine was used for blocking. All of the sensor tip and reagents for immobilization were manufactured by GE Healthcare Bioscience. The IgG-Fab solution was diluted to about 10 times by using a buffer for immobilization (10 mM CK₃COOH—CH₃CONa, pH 4.5), and the Fab was immobilized on the sensor tip in accordance with the protocol attached to the Biacore 3000. In addition, a reference cell as negative control was also prepared by activating another flow cell on the tip with EDC/NHS and then immobilizing human serum albumin manufactured by Wako Pure Chemical Corporation. […] Binding response curves at the time of addition (association phase, for 1 minute) and after the addition (dissociation phase, for 1 minute) were sequentially obtained at a measurement temperature of 25° C. After each measurement, about 20 mM NaOH was added for washing. With respect to the obtained binding response curve from which the binding response curve of the reference cell was subtracted, a fitting analysis was conducted by 1:1 binding model using a software included in the system, “BIA evaluation”, and an affinity constant (KA=kₒₙ/koff) for human IgG-Fab was calculated.

[2] = target: T1, aTNFa-Fab (Fab fragment of Infliximab); remark: listed apart in the source
Protocol: as §1

[3] = target: T1, aTNFa-Fab (Fab fragment of Infliximab); remark: listed apart in the source
Protocol: as §1

Binder	Ka [1] [M⁻¹]	koff [1] [s⁻¹]	kon [1] [M⁻¹ s⁻¹]	Ka [2] [M⁻¹]	koff [2] [s⁻¹]	kon [2] [M⁻¹ s⁻¹]	other results
B1	20000	0.397	10000	–	–	–	–
B2	–	–	–	30000	0.481	10000	–
B3	–	–	–	–	–	–	Ka [3]: 700000 M⁻¹; koff [3]: 0.215 s⁻¹; kon [3]: 150000 M⁻¹ s⁻¹
B4	–	–	–	100000	0.305	20000	–
B5	–	–	–	300000	0.239	70000	–
B6	200000	0.152	20000	–	–	–	–
